Assay results as given in patent US20120195893A1 (UNITED STATES OF AMERICA AS REPRESENTED BY THE SECRETARY OF …, published 2012).

Biological target: T1, mouse DEC205 receptor (mouse, UniProt Q60767 28-1723)
T1 construct: whole, on cells; also called DEC25 receptor; CD205
Assay: flow cytometry on DEC205-transfected A204 cells

B1: PyTh1 chimeric molecule (other)
heavy: EVKLLESGGGLVQPGGSLRLSCAASGFTFNDFYMNWIRQPPGQAPEWLGVIRNKGNGYTTEVNTSVKGRFTISRDNTQNILYLQMNSLRAEDTAIYYCARGGPYYYSGDDAPYWGQGVMVTVSSAKTTAPSVYPLAPVCGDTTGSSVTLGCLVKGYFPEPVTLTWNSGSLSSGVHTFPAVLQSDLYTLSSSVTVTSSTWPSQSITCNVAHPASSTKVDKKIEPRGPTIKPCPPCKCPAPNLLGGPSVFIFPPKIKDVLMISLSPIVTCVVVDVSEDDPDVQISWFVNNVEVHTAQTQTHREDYNSTLRVVSALPIQHQDWMSGKEFKCKVNNKDLPAPIERTISKPKGSVRAPQVYVLPPPEEEMTKKQVTLTCMVTDFMPEDIYVEWTNNGKTELNYKNTEPVLDSDGSYFMYSKLRVEKKNWVERNSYSCSVVHEGLHNHHTTKSFSQTPGKGGGGSGGGGSGGGGSVDEQLSKSVKDKVLLPCRYNSPHEDECEDRIYWQKHDKVVLSVIAGKLKVWPEYKNRTLYDNTTYSLIILGLVLSDRGTYSCVVQKKERGTYEVKHLALVKLSIKADFSTPNITESGNPSADTKRITCFASGGFPKPRFSWLENGRELPGINTTISQDPESELYTISSQLDFNTTRNHTIKCLIKYGDAHVSEDFTWEKPPEDPPDSK
light: DIQMTQSPSFLSTSLGNSITITCHASQNIKGWLAWYQQKSGNAPQLLIYKASSLQSGVPSRFSGSGSGTDYIFTISNLQPEDIATYYCQHYQSFPWTFGGGTKLELKRDAAPTVSIFPPSSEQLTSGGASVVCFLNNFYPKDINVKWKIDGSERQNGVLNSWTDQDSKDSTYSMSSTLTLTKDEYERHNSYTCEATHKTSTSPIVKSFNRNECGGGGSGGGGMGGGGSYNRNIVNRLLGDALNGKPEEK
notes: Mouse IgG2a scaffold with the variable domains of rat anti-mouse DEC205, made in SP20 myeloma cells; also called PhyTh1; PyTh1 vaccine
  binding result: binds
